According to US20190351049A1 (Regeneron, published 2019):
Where two headings read alike, the source gives them in different places.

Experiments:
[1] = biological target: T1, MERS-CoV spike protein (EMC/2012), wt (MERS-CoV (isolate EMC/2012), UniProt K9N5Q8 18-1353); test: cell-based or functional assay
[2] = biological target: T1, MERS-CoV spike protein (EMC/2012), wt; test: cell-based or functional assay; remark: listed apart in the source
[3] = biological target: T1, MERS-CoV spike protein (EMC/2012), wt; test: cell-based or functional assay; remark: listed apart in the source
[4] = biological target: MERS-RBD-mFc (MERS-CoV (isolate EMC/2012), UniProt K9N5Q8 367-606); test: Octet BLI, MERS.mFc captured on the sensor, then mAb-1 applied

Binder	IC50 against MERSpp [1] [pM]	IC50 against live virus (EMC2012) [1] [pM]	% Neutralization (.025 µg/ml), MERSpp infectivity [2] [%]	Neutralization IC50 (M), MERSpp infectivity [2] [M]	IC50 against MERSpp [3] [pM]	IC50 against live virus (EMC2012) [3] [pM]	mAb-1 Binding (nm) [4] [nm]
H1M15280N (antibody, V domains shown) VH: EVQLLESGGGLVQPGGSLRLSCAASGFTFSSYAMSWVRQAPGKGLEWVSAISGSGSSTYYADSVKGRFTISRDNSKNTLFLQMNSLRAEDTAVYYCAEGGDVDFDYWGQGTLVTVSS VL: not shown	111	763	97	1.76e-10			
H1H15188P (antibody, V domains shown) VH: QVQLVQSGAEVKKPGSSVKVSCKASGGSFSVYAISWVRQAPGQGLEWMGGIIPIFGTANYAQKFQDRFTITTDESTSTAYMELSSLRSEDTAMYYCAREGDIVVLPAGKGGMDVWGQGTTVTVSS VL: DIVMTQSPLSLPVTPGEPASISCRSSQSLLHGNGYNYLDWYLQKPGQSPQLLIYLVSHRASGVPDRFSGSGSGTDFTLKISRVEAEDVGVYYCMQALQSPWTFGQGTKVEIK					62	505	0.54
H1M15293N (antibody, V domains shown) VH: QVQLVQSGAEVKKPGSSVKVSCKVSGVTFSSYAISWVRQAPGQGLEWMGGIIPFFGTASYAQKFQGRVTVTTDESTSTAYMEVSSLRSEDTAVYYCARDNPELTKEGYYHYYAMDVWGQGTTVTVSS VL: not shown	258	2580	86	4.36e-10			
H2bM15292N (antibody, V domains shown) VH: QVQLVQSGAEVKKPGSSVKVSCKASGGTFNNYAISWVRQAPGQGLEWMGGIIPFFGTTNYAQKFQDRVTITSDDSTITAYMELSRLRSEDTAVYYCARDEPRRDGYNYYHYYYMDVWGQGTTVTVSS VL: DIQMTQSPSSLSASVGDRVTITCRASQSINSYLNWYQQKPGKAPNLLIYAASSLQSGVPSRFSGSGSGTDFTLTISSLHPEDFATYYCQQSYSTPPITFGQGTRLEIK	113	2260	91	3.57e-10			
H2aM15271N (antibody, V domains shown) VH: EVQLVESGGALVQPGGSLRLSCAASGFIFGSYEMNWVRQAPGKGLEWLSYISSSGSTIYYADSVKGRFTISRDNAKNSLYLQMNSLRAEDTAVYYCARERGQLGRGGYYYYGMDVWGQGTTVTVSS VL: EIVLTRSPGTLSLSPGERATLSCRASQSVSSSYLAWYHQKPGQAPRLLMYGTSIRATGIPDRFSGSGSGTDFTLTISRLEPEDFAVYYCQQYGSSPPWTFGQGTKVEIK	127	1030	97	2.74e-10			
H1M15277N (antibody, V domains shown) V domain 1: EVQLLESGGGLVQPGGSLRLSCAASGFTFSSYAMSWVRQAPGKGLEWVSAISGRGGNTYYADSVKGRFTISRDNSKNTLFLQMNTLRAEDTAVYYCAKDRGFGFFDIWGRGTLATVSS V domain 2: not shown	64.6	287	99	1.33e-10			
H2aM15278N (antibody, V domains shown) VH: QVQLVQSGAEVKKPGASVKVSCKASGYTFTSHGISWVRQAPGQGFEWMGWIGTYNSNTDYAQNFQGRVTMTTDTSTSTAYMELRNLRSDDTAVYYCARERGPYYGMDVWGQGTTVTVSS VL: EIVLAQSPGTLSLSPGERATLSCRASQSVNSNYLAWYQQKPGQAPRLLIYGASSRATGIPDRFSGSGSGTDFTLTISRLEPEDFAVYYCQQYGNSLTFGPGTKVDFK	142	644	98	2.11e-10			
H1M15269N (antibody, V domains shown) VH: EVQLLESGGGLVQPGGSLRLSCPASGFTFSNYAMTWVRQAPGKGLEWVSAISGSGATTKYADSVKGRFTISRDNSRNTLYLQMNSLRAEDTAVYYCAKGGSGSYFPYYYYGLDVWGQGTTVTVSS VL: EIVMTQSPATLSVSPGDSATLSCRASQTVSSNLAWYQQKPGQAPRLLIYGASTRATGIPARFSGSGSGTEFTLTISSLQSEDFAVYYCQQYYNWWTFGQGTKVEIK	688	6800	40	1.02e-09			
H1H15177P (antibody, V domains shown) VH: EVQLVESGGGLVQPGGSLRLSCSASGFTFSSYDMSWVRQAPGKGLEWVSAIRGSGHTTYYADSVKGRFTISRDNSKNTLYLEMNSLRAEDTAVYYCVKDGSIVGFDPWGQGTLVTVSS VL: not shown					45.7	629	0.6
H2aM15287N (antibody, V domains shown) VH: QLQLQESGPGLVKPSETLSLTCTVSGGSISSGNYYWGWIRQPPGKGLEWFGTIYYSGSTYYNPSLKSRVTISVDTSKNQFSLKLSSVTAADTAVYYCARRAAVGHFDYWGQGTLVTVSS VL: DIQMTQSPSTLSASVGDRVTITCRASQSISTWLAWYQQKPGKAPKLLIYEASSLESGVPSRFSGSGFGTEFTLTISRLQPDDFATYFCQQYNTYWTFGQGTKVEIK	2930	8920	5	3.59e-09			
H2aM15279N (antibody, V domains shown) VH: EVQLLESGGGLVQTGGSLRLSCAASGFTFSNYAMSWVRQAPGKGLEWVSAISDRGGSIYYADSVKGRFTISRDNSKNTKYLQMDSLRAEDTAVYYCAQDRGFGVFDYWGQGTLVTVSS VL: DIQMTQSPSSLSASVGDRVTITCQASQDIGNYLNWFQQRPGKAPNLLIYGASNLETGVPSRFSGGGSGTDFTFTISSLQPEDIATYFCQQYDNLPFTFGPGTKVEIK	93.9	825	97	1.38e-10			
H2aM15281N (antibody, V domains shown) VH: QVQLVQSGAEVKKPGSSVKVSCKASKDTFSSYAISWVRQAPGQGLEWMGGIIPFFGTTTYEQKFQGRVTITTDESTRTAYMELSSLRSEDSAVYYCARDRPCISSAGTRYHYCVMDVWGQGTTVTVSS VL: not shown	78.5	292	98	4.64e-10			
H2aM15272N (antibody, V domains shown) VH: QVRLVQSGAEVKKPGSSVKVSCKASGDTFSSYAISWVRQAPGQGLEWMGGIIPFFVTTTYAQNFQGRVTITTDESTRTAYMELSSLRSEDSAVYYCARDRPCISSAGTRYHYCVMDVWGQGTTVTVSS VL: not shown	72.3	569	97	2.21e-10			
H1H15203P (antibody, V domains shown) VH: EVQLVESGGDLVQPGGSLRVSCAASGFTFSNYDMYWVRQAPGKGLEWVSVISGIGATTYYADSVKGRFTISRDNSKNTVFLQMNSLRAEDTAVYYCVKGGPIVATDYWGQGTLVTVSS VL: not shown					76.5	826	0.51
H1H15211P (antibody, V domains shown) VH: EVQLVESGGGLVQPGGSLRLSCVVSGFTFSNYDMSWVRQAPGRGLEWVSAIRGSGFNTYYADSVKGRFTISRDNSKNTLYLQMNSLRAEDTAVYYCAKDGSIVSMDYWGQGTLVTVSS VL: not shown					47.4	369	0.76
H1M15290N (antibody, V domains shown) VH: QVQLVQSGAEVKKPGSSVKVSCKASGGTFSTYAISWVRQAPGQGLEWMGGIIPFFGTANYAQKFQGRVTITTDESTSTAYMELSSLRSEDTAVYYCAREGTYYDSLTGYYTHYYRMDVWGQGTTVTVSS VL: not shown	210	2550	83	5.84e-10			
H2bM15291N (antibody, V domains shown) VH: QVQLVQSGAEVKKPGSSVKVSCKASGDTFSTYAVSWVRQAPGQGLEWMGGIIPFFGTSNYAQKFQGRVTITTDESTTTAYMELNSLRSEDTAVYYCAREITMVRGLTNYHFYGMDVWGQGTTVTVSS VL: not shown	186	2220	90	3.05e-10			
H1M15289N (antibody, V domains shown) VH: QVQLQESGPGLVKPSETLSLTCTVSGGSISSYYWSWIRQPPGKGLEWIGYIYYSGSANYNPSLKSRVTISVDTSKNQFSLKLSSVTAADTAVYYCVRDRDLLLDHWGQGTLVTVSS VL: EIVMTQSPATLSVSPGKRATLSCRASQSVSSNLAWYQQKPGQAPRLLIYGASTRTTGFPARFSGSGSGTDFTLTISSLQSEDFAVYYCQQYNNWPYTFGQGTMLEIK	281	3150	89	4.25e-10			
H2aM15270N (antibody, V domains shown) VH: EVQLLESGGGLEQPGGSLRLSCAASGFTFSSYAMIWVRQAPGKGLEWVSTISGSGVNTYYADSVKGRFTISRDNSKNTLHLQMNSLRAEDTAVYHCAKEGLDCANGVCYNYYGMDVWGQGTTVTVSS VL: DIQMTQSPSSLSASVGDRVTITCRASQSINSFLNWYHQKPGKAPKFLIYSASNLQSGVPSRFSGSGSGTDFTLTISSLQPEDFSTYYCQQSYSIPLTFGGGTKVEIK	102	711	98	3.25e-10			
H1M15267N (antibody, V domains shown) VH: QVQLQESGPGLVKPSETLSLTCTVSGGSISSYYWSWIRQPPGKGLEWIGYIYYSGSPNYNPSLKSRVTISVDTSKNQFSLKLTSVTAADTAVYYCARSLNWGPPFDYWGQGTLVTVSS VL: not shown	99.8	891	99	1.49e-10			
